Test results reported in the supplement of paper PMC12042874.
± gives the uncertainty stated by the source.

experiment: amyloid nucleation score (Sup35N fusion, yeast selection) (log enrichment); library NNK1; higher = more nucleation; inactive = no reads after selection
Summary of the method: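 Plasmid inserts were Illumina-sequenced at input and output from psi-negative yeast expressing Sup35N fused to peptides of 20 random codons. The yeast were induced with 100 μM copper sulfate for 24 hours and grown 7 days at 30°C on medium lacking adenine and uracil, and sequences with under 100 input reads were excluded. Nucleation score is the DiMSum log enrichment of output over input reads, centred on the mode score of non-aggregating sequences.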

Substance | amyloid nucleation score
PGYYLEYFLYVNLSWAKTWG | 0.018 ± 0.27
PHDSFLMHTDSGEHWGPVYR | 0.037 ± 0.36
PHIIFNVVTITYMISALRHV | 3.49 ± 0.09
PHYRTSFVKHPLL | 0.73 ± 0.54
PIFAVTKVQVMRPH | -1.94 ± 2.7
PIKEVPNTSRLLFSVCMKWH | 0.504 ± 0.74
PIVLWTIIPNTFKS | 1.25 ± 0.17
PIYGFCSIALGSMLIIPRLL | -1.05 ± 0.77
PKFSLMQLTPGLGTQ | 3.13 ± 0.13
PKMAPRNINVGRS | 0.26 ± 0.54
PLFVVRIDEISSDSIRGAGH | 1.88 ± 0.53
PLHAANDLSCPENLDVWYHE | -0.696 ± 0.83
PLKFTSSMSG | -1.23 ± 0.51
PLRDGA | -0.856 ± 2.4
PLRDKESVLMWLYSYWVTNI | 0.017 ± 0.32
PLTVVLRSV | inactive
PMIPKFMSERCQLIWWM | 0.961 ± 0.7
PMLNFEIMVRHDRRRLYKVC | 0.714 ± 0.42
PMVTSSCFRCTLLCSQFWQF | 0.444 ± 0.26
PNIEPCLSSFVSKSLDDPRT | -0.127 ± 0.37
PNIKLSDRLGIIRREIWMVV | 0.54 ± 0.39
PNPWRLRWLLALDMNLVGLQ | 0.376 ± 1.1

Substance | amyloid nucleation score
PNQVYGTAFCGDEKNRMRWK | 4.6 ± 0.079
PNYIRGSIINYILEYSISIN | 0.02 ± 0.39
PPHLLFCYNMVLTWWLYAFA | 0.088 ± 1.2
PQLRLLPGVLGNPGNGHSRI | 4.59 ± 0.098
PRSDNSFSVQVEFVDICEVK | -0.437 ± 0.56
PSGTGWRLDGSV | 0.09 ± 0.38
PSIGMVF | 1.77 ± 0.53
PSNPFHCVMKARKSLNGIDR | -0.09 ± 0.29
PSRDSV | -1.06 ± 1.2
PSSGLFASLIVMSTVRTDLI | -0.307 ± 0.38
PSSLLNMDTTRGYHDPEWGI | -0.381 ± 0.3
PSVTTS | -0.482 ± 0.58
PSWSPKAIKFQHVLYFVKFL | 0.236 ± 0.59
PTAEV | 0.545 ± 0.76
PTKSIMLFCLGLFCGYLARA | 2.91 ± 0.093
PTRYRKLKRQAKATYIHSNP | -0.552 ± 1.6
PVCHLSGFFFLYDSGCSD | 4.82 ± 0.069
PVNLGSDVYYNVRSQCGSMY | -0.218 ± 0.23
PVRQSL | 0.343 ± 0.33
PVVCYTVAFVTGSTDVV | -0.139 ± 1.3
PWADVR | 0.721 ± 0.38
PWDSHSHHSTNRQLRFSSSG | -0.397 ± 0.6

Substance | amyloid nucleation score
PYFDTEHERVKDH | 0.398 ± 0.62
PYGIGIFNYLWATGMNLSQA | -0.071 ± 0.43
PYIRVRLFMVVY | 0.659 ± 0.56
PYLVVVTHMAMASHWDLLLP | 0.25 ± 0.41
PYSAQAFERRSHAIRGVSKN | -0.438 ± 0.44
QAKLPLTIDCMKCGTVGTGR | -0.16 ± 0.34
QANAMNYKEKLFNFRYRGAM | -0.722 ± 0.53
QAVRDVRLCN | -0.073 ± 0.61
QCWEWIR | -0.564 ± 0.84
QCYIGVKYHSALVWDHTPEA | 2.29 ± 0.61
QDFSVTPHGV | 0.228 ± 0.62
QDGLGLTDAVRRTGFVGRTH | 0.197 ± 0.86
QFLALVCFCIPRLVRLAGYE | -1.35 ± 1.1
QFMGCRFKLSDSSIWKKSLR | 0.381 ± 0.64
QFPERWDPFLPMSRASRYYH | 0.865 ± 0.69
QFSRTRFFICGLGRSAPAVR | 1.53 ± 0.85
QGGTVCLEF | -0.578 ± 0.34
QGILCFSIHSSNSMTGNTVF | 0.038 ± 0.25
QGNHVKCVLCRVIPMRCLGL | -1.41 ± 1.1
QGRLYSH | 0.438 ± 0.39
QGSYLHLSIKWLAFRSMS | 0.19 ± 0.4
QGTRGRCGFSRDEVECVVRR | -0.673 ± 1

Substance | amyloid nucleation score
QHHMVEIWPSDECVEWLVSS | -0.034 ± 0.22
QHLRFSFVPE | 0.312 ± 0.46
QHPIWCNRSPLTHDRDTVG | 0.239 ± 0.24
QHVMPWPWWMGLSSLDRWYL | 1.44 ± 0.49
QHWNGTNNMILYYFPRPSAR | 5.25 ± 0.065
QIQIT | 0.152 ± 1
QIVRTRFNRYR | -0.313 ± 1.1
QKGLDVVWYDTRSDMYNKIL | -0.569 ± 0.7
QKRAMYDLGCSFSLFNLCYQ | 5.28 ± 0.062
QKYPPRGNRFSLCRITVSCF | 0.22 ± 0.89
QKYPSWINFPYF | -0.935 ± 0.97
QLAERTGVHCSQFTKWFFKM | 1.72 ± 0.38
QLEDAVKMGLVEFEGRSHGS | 0.78 ± 0.29
QLLFRRYKMGIVSRYSVITR | -0.339 ± 0.53
QLLSISRILLMNRELRRR | -0.623 ± 1
QLTVYMFFCYC | 5.378 ± 0.044
QLVIILERRSWCHIL | 2.42 ± 0.27
QMNGWVCCFSQGQRMFVLLM | 0.977 ± 0.47
QMTVGQYSCL | 0.45 ± 1.1
QMYYFRCGQFTQGGNTQWLW | 0.632 ± 0.39
